{"source": "patent US20230277632A1", "about": "“MODIFIED PlySs2 LYSINS AND ANTIBIOTIC COMBINATIONS FOR USE AGAINST GRAM-POSITIVE BACTERIA” (ContraFect Corporation, priority 2020, published 2023)", "molecules": {"B1": {"name": "pp296: modified PlySs2 lysin, SEQ ID NO: 6: L92W, V104S, V128T, Y137S, Y164K, N184D, S198Q (protein)", "chain": "MTTVNEALNNVRAQVGSGVSVGNGECYALASWYERMISPDATVGLGAGVGWVSGAIGDTISAKNIGSSYNWQANGWTVSTSGPFKAGQIVTWGATPGNPYGHVSIVEAVDGDRLTILEQNYGGKRYPTRNYYSAASSRQQVVHYITPPGTVAQSAPNLAGSRSKRETGTMTVTVDALNVRRAPDTSGEIVAVYKRGEQFDYDTAIIDVNGYAWVSYIGGSGKRNYVATGATKDGKRFGNAWGTFK"}}, "key": {"S. aureus isolates [1]": {"test_system": "S. aureus isolates", "experiment": "In vivo efficacy of vancomycin in combination with pp296, neutropenic murine thigh infection model", "conditions": "24 h", "method": "(§1) Study animals: Specific pathogen-free female ICR mice (average body weight 23 grams) were provided food and water ad libitum and maintained and used in accordance with National Research Council recommendations. Animals were allowed a 48-hour post-delivery acclimation period before every experiment. Mice were rendered transiently neutropenic by injection of cyclophosphamide via intraperitoneal (IP) route at a dose of 150 mg/kg of body weight at four days before bacterial inoculation and 100 mg/kg of body weight at one day before bacterial inoculation.\nNeutropenic Thigh Infection Model: Two transfers of the bacterial isolates were performed onto trypticase soy agar plates with 5% sheep blood and placed into an incubator at 37° C. for approximately 24 hours. After an 18-24 hour incubation of the second transfer, a suspension of approximately 10^7 CFU/mL was made for inoculation. Final bacterial inoculum concentrations were confirmed by serial dilution and plating techniques. Thigh infection with the test isolate was produced by intramuscular injection of 0.1 mL of the bacterial inoculum into each thigh of the mice. Antimicrobial therapy was initiated 2 hours after bacterial inoculation, as detailed below. […]\n(§2) Untreated control mice (n=3) were sacrificed just prior to antibiotic administration and 24 hours after bacterial inoculation. Animals sacrificed prior to antibiotic initiation served as 0-hour control animals, representing initial bacterial burden. […] Treatment mice (n=3/group) were sacrificed at the end of the 24 hour treatment period. After sacrifice, both thighs for each mouse were homogenized in normal saline. Serial dilutions were plated on Trypticase soy agar with 5% sheep blood and incubated for 18 to 20 hours at 37.0 to determine the CFU. Efficacy was calculated as the change in bacterial density obtained in treated mice after 24 hours compared with the numbers in the 0-hour control animals. Bacterial density represents the average CFU determined from 3 mice, each contributing 2 thighs."}, "S. aureus isolates [2]": {"test_system": "S. aureus isolates", "experiment": "In vivo efficacy of daptomycin in combination with pp296, neutropenic murine thigh infection model", "conditions": "24 h", "method": "as §1\nNeutropenic Thigh Infection Model: Two transfers of the bacterial isolates were performed onto trypticase soy agar plates with 5% sheep blood and placed into an incubator at 37° C. for approximately 24 hours. After an 18-24 hour incubation of the second transfer, a suspension of approximately 10^7 CFU/mL was made for inoculation. Final bacterial inoculum concentrations were confirmed by serial dilution and plating techniques. Thigh infection with the test isolate was produced by intramuscular injection of 0.1 mL of the bacterial inoculum into each thigh of the mice. Antimicrobial therapy was initiated 2 hours after bacterial inoculation, as detailed below.\nas §2\nFor the 4 S. aureus isolates HPV107, CAIRD426, JMI227, and NRS123, the following sub-therapeutic daptomycin dosage regimen was adopted: 0.76 mg/kg at 0 hrs, 0.4 mg/kg at 4 hrs, 0.24 mg/kg at 10 hrs, and 0.12 mg/kg at 17 hrs."}}, "note": "Values joined by “and” are separate entries in the source; they are usually repeats but may differ in a detail not shown here. Identical values can stand only once."}
{"molecule": "B1", "values": [{"measurement": "Replicate Log10 CFU/thigh data", "setting": "S. aureus isolates [1]; ATCC2921, pp296 50 mg/kg alone, 50 mg/kg", "result": "8.15 Log10 CFU/thigh (2×) and 8.58 Log10 CFU/thigh and 7.86 Log10 CFU/thigh and 6.81 Log10 CFU/thigh and 8.00 Log10 CFU/thigh"}, {"measurement": "Replicate Log10 CFU/thigh data", "setting": "S. aureus isolates [1]; CAIRD426, pp296 50 mg/kg alone (VAN 1.5 mg/kg study)", "result": "5.41 Log10 CFU/thigh and 5.80 Log10 CFU/thigh and 7.92 Log10 CFU/thigh and 8.33 Log10 CFU/thigh and 4.90 Log10 CFU/thigh and 6.18 Log10 CFU/thigh"}, {"measurement": "Replicate Log10 CFU/thigh data", "setting": "S. aureus isolates [1]; CAIRD426, pp296 50 mg/kg alone, Run #1, 50 mg/kg", "result": "6.04 Log10 CFU/thigh and 4.62 Log10 CFU/thigh and 5.46 Log10 CFU/thigh and 4.94 Log10 CFU/thigh and 6.53 Log10 CFU/thigh and 6.00 Log10 CFU/thigh"}, {"measurement": "Replicate Log10 CFU/thigh data", "setting": "S. aureus isolates [1]; CAIRD426, pp296 50 mg/kg alone, Run #2, 50 mg/kg", "result": "8.14 Log10 CFU/thigh and 7.97 Log10 CFU/thigh and 4.83 Log10 CFU/thigh and 4.79 Log10 CFU/thigh and 5.84 Log10 CFU/thigh and 6.07 Log10 CFU/thigh"}, {"measurement": "Replicate Log10 CFU/thigh data", "setting": "S. aureus isolates [1]; HPV107, pp296 50 mg/kg alone (VAN 1.5 mg/kg study)", "result": "8.08 Log10 CFU/thigh and 8.00 Log10 CFU/thigh and 7.05 Log10 CFU/thigh and 7.21 Log10 CFU/thigh and 4.64 Log10 CFU/thigh and 6.57 Log10 CFU/thigh"}, {"measurement": "Replicate Log10 CFU/thigh data", "setting": "S. aureus isolates [1]; HPV107, pp296 50 mg/kg alone, Run #1, 50 mg/kg", "result": "5.08 Log10 CFU/thigh and 4.96 Log10 CFU/thigh and 5.36 Log10 CFU/thigh and 6.45 Log10 CFU/thigh and 6.14 Log10 CFU/thigh and 6.78 Log10 CFU/thigh"}, {"measurement": "Replicate Log10 CFU/thigh data", "setting": "S. aureus isolates [1]; HPV107, pp296 50 mg/kg alone, Run #2, 50 mg/kg", "result": "7.35 Log10 CFU/thigh and 8.03 Log10 CFU/thigh (2×) and 6.53 Log10 CFU/thigh and 7.04 Log10 CFU/thigh and 6.30 Log10 CFU/thigh"}, {"measurement": "Replicate Log10 CFU/thigh data", "setting": "S. aureus isolates [1]; JMI227, pp296 50 mg/kg alone, 50 mg/kg", "result": "5.01 Log10 CFU/thigh and 6.67 Log10 CFU/thigh and 7.71 Log10 CFU/thigh and 8.05 Log10 CFU/thigh and 4.72 Log10 CFU/thigh and 7.34 Log10 CFU/thigh"}, {"measurement": "Replicate Log10 CFU/thigh data", "setting": "S. aureus isolates [1]; JMI4789, pp296 50 mg/kg alone, 50 mg/kg", "result": "5.02 Log10 CFU/thigh and 5.19 Log10 CFU/thigh and 7.69 Log10 CFU/thigh and 8.08 Log10 CFU/thigh and 5.11 Log10 CFU/thigh and 6.15 Log10 CFU/thigh"}, {"measurement": "Replicate Log10 CFU/thigh data", "setting": "S. aureus isolates [1]; NRS100, pp296 50 mg/kg alone (VAN 1.5 mg/kg study)", "result": "4.79 Log10 CFU/thigh and 5.29 Log10 CFU/thigh and 4.72 Log10 CFU/thigh and 4.90 Log10 CFU/thigh (2×) and 5.73 Log10 CFU/thigh"}, {"measurement": "Replicate Log10 CFU/thigh data", "setting": "S. aureus isolates [1]; NRS100, pp296 50 mg/kg alone, Run #1, 50 mg/kg", "result": "4.75 Log10 CFU/thigh and 4.81 Log10 CFU/thigh and 4.78 Log10 CFU/thigh and 4.83 Log10 CFU/thigh and 4.48 Log10 CFU/thigh and 4.70 Log10 CFU/thigh"}, {"measurement": "Replicate Log10 CFU/thigh data", "setting": "S. aureus isolates [1]; NRS100, pp296 50 mg/kg alone, Run #2, 50 mg/kg", "result": "4.62 Log10 CFU/thigh and 4.73 Log10 CFU/thigh and 4.66 Log10 CFU/thigh and 4.41 Log10 CFU/thigh and 5.94 Log10 CFU/thigh and 6.34 Log10 CFU/thigh"}, {"measurement": "Replicate Log10 CFU/thigh data", "setting": "S. aureus isolates [1]; NRS123, pp296 50 mg/kg alone, 50 mg/kg", "result": "6.53 Log10 CFU/thigh and 8.01 Log10 CFU/thigh and 8.08 Log10 CFU/thigh and 7.48 Log10 CFU/thigh and 8.41 Log10 CFU/thigh and 8.38 Log10 CFU/thigh"}, {"measurement": "Replicate Log10 CFU/thigh data", "setting": "S. aureus isolates [1]; NRS217, pp296 50 mg/kg alone (VAN 1.5 mg/kg study)", "result": "7.46 Log10 CFU/thigh and 7.45 Log10 CFU/thigh and 4.60 Log10 CFU/thigh and 4.79 Log10 CFU/thigh and 7.49 Log10 CFU/thigh and 6.72 Log10 CFU/thigh"}, {"measurement": "Replicate Log10 CFU/thigh data", "setting": "S. aureus isolates [1]; NRS217, pp296 50 mg/kg alone, Run #1, 50 mg/kg", "result": "4.75 Log10 CFU/thigh and 6.79 Log10 CFU/thigh and 5.06 Log10 CFU/thigh and 4.93 Log10 CFU/thigh and 5.72 Log10 CFU/thigh and 5.76 Log10 CFU/thigh"}, {"measurement": "Replicate Log10 CFU/thigh data", "setting": "S. aureus isolates [1]; NRS217, pp296 50 mg/kg alone, Run #2, 50 mg/kg", "result": "5.35 Log10 CFU/thigh and 5.98 Log10 CFU/thigh and 6.08 Log10 CFU/thigh and 5.42 Log10 CFU/thigh and 4.32 Log10 CFU/thigh and 6.26 Log10 CFU/thigh"}, {"measurement": "Replicate Log10 CFU/thigh data", "setting": "S. aureus isolates [1]; isolate CAIRD426, pp296 50 mg/kg alone, VAN 5 mg/kg study", "result": "8.95 Log10 CFU/thigh and 7.96 Log10 CFU/thigh and 7.74 Log10 CFU/thigh and 8.34 Log10 CFU/thigh"}, {"measurement": "mean bacterial density vs starting inoculum", "setting": "S. aureus isolates [1]; pp296 0.5 mg/kg IV + vancomycin 1.5 mg/kg SC, 4 isolates", "result": "0.92±1.24", "unit": "log10 CFU/thigh"}, {"measurement": "mean bacterial reduction vs starting inoculum", "setting": "S. aureus isolates [1]; pp296 0.5 mg/kg IV + vancomycin 3 mg/kg q12h SC, 8 isolates", "result": "−0.26±1.10", "unit": "log10 CFU/thigh"}, {"measurement": "mean bacterial reduction vs starting inoculum", "setting": "S. aureus isolates [1]; pp296 0.5 mg/kg IV + vancomycin 5 mg/kg SC, 4 isolates", "result": "−0.59±0.79", "unit": "log10 CFU/thigh"}, {"measurement": "mean bacterial density vs starting inoculum", "setting": "S. aureus isolates [1]; pp296 50 mg/kg IV + vancomycin 1.5 mg/kg SC, 4 isolates", "result": "−0.61±0.82", "unit": "log10 CFU/thigh"}, {"measurement": "mean bacterial reduction vs starting inoculum", "setting": "S. aureus isolates [1]; pp296 50 mg/kg IV + vancomycin 3 mg/kg q12h SC, 8 isolates", "result": "−1.01±0.41", "unit": "log10 CFU/thigh"}, {"measurement": "mean bacterial reduction vs starting inoculum", "setting": "S. aureus isolates [1]; pp296 50 mg/kg IV + vancomycin 5 mg/kg SC, 4 isolates", "result": "−0.85±0.54", "unit": "log10 CFU/thigh"}, {"measurement": "average growth vs starting inoculum", "setting": "S. aureus isolates [1]; pp296 50 mg/kg alone, 4 isolates (VAN 1.5 mg/kg study)", "result": "0.75±1.24", "unit": "log10 CFU/thigh"}, {"measurement": "average growth vs starting inoculum", "setting": "S. aureus isolates [1]; pp296 50 mg/kg alone, 4 isolates (VAN 5 mg/kg study)", "result": "1.44±1.43", "unit": "log10 CFU/thigh"}, {"measurement": "average growth vs starting inoculum", "setting": "S. aureus isolates [1]; pp296 50 mg/kg q24h IV alone, 8 isolates (VAN 3 mg/kg study)", "result": "0.37±1.27", "unit": "log10 CFU/thigh"}, {"measurement": "mean bacterial density vs starting inoculum", "setting": "S. aureus isolates [2]; pp296 0.5 mg/kg IV + sub-therapeutic daptomycin", "result": "0.80±1.19", "unit": "log10 CFU/thigh"}, {"measurement": "mean bacterial density vs starting inoculum", "setting": "S. aureus isolates [2]; pp296 50 mg/kg IV + sub-therapeutic daptomycin", "result": "−0.72±0.59", "unit": "log10 CFU/thigh"}, {"measurement": "average growth vs starting inoculum", "setting": "S. aureus isolates [2]; pp296 50 mg/kg alone, 8 isolates (daptomycin study)", "result": "1.36±1.35", "unit": "log10 CFU/thigh"}]}
